Assay results reported in the nanobody polyreactivity screen of Harvey et al. (2022).

test: yeast display, Sf9 membrane polyspecificity reagent, FACS + sequencing; frameworks hold sequencing errors
Method in brief: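 In a synthetic yeast display library (Saccharomyces cerevisiae BJ5465), nanobody expression was induced with galactose for 36–48 hours. FACS gates were set low and high (top ~1%) using anti-HA fluorescence for expression and streptavidin fluorescence for binding of the Sf9 membrane reagent. Each polyreactivity label is drawn from the gate of origin.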

Sequence	polyreactivity (PSR sort gate)
QVQLVESGGGLVQAGGSLRLSCAASGFIFGRYTMGWYRQAPGKERELVAAISGSDVSTYYADSVKGRFTISRDNAKITVYLQMNRLKPEDTAVYYCAADAPWAYYEYDYWGQGTQVTVSS	low polyreactivity
QVQLVESGGGLVQAGGSLRLSCAASGFIFGRYTMGWYRQAPGKERELVAAISGSDVSTYYADSVKGRFTISRDNAKNTVYLQMNSLKPEDTAVYYCAADAPWAYYEYDYWGQGTQVTVSS	low polyreactivity
QVQLVESGGGLVQAGGSLRLSCAASGFIFGSYAMGWYRQAPGKERELVAAISWSGASTYYADSVKGRFTISRDKAKNTVYLQMNSLKPEDTAVYYCAAVSRYGWYDYWGQGTQVTVSS	high polyreactivity
QVQLVESGGGLVQAGGSLRLSCAASGFIFGTYAMGWYRQAPGKEREFVAAITTSGSSTRYADSVKGRFTISRDNAKNTVYLQMNSLKPEDTAVYYCAARNRTFFQPTYYYWGQGTQVTVSS	high polyreactivity
QVQLVESGGGLVQAGGSLRLSCAASGFIFGTYVMGWYRQAPGKERELVAAISESGGRTYYADSVKGRFTISRDNAKNTVYLQMNSLKPEDTAVYYCNAPHHRYDWGQGTQVTVSS	high polyreactivity
QVQLVESGGGLVQAGGSLRLSCAASGFIFGVNTMGWYRQAPGKERELVAAINSGGSTNYADSVKGRFTISRDNAKNTVYLLMNSLKPEDTAVYYCAVRHFWYRWGWYNYWGQGTEVTVSS	high polyreactivity
QVQLVESGGGLVQAGGSLRLSCAASGFIFGVYAKGWYRQAPGKERELVAAISGSGVRTYYADSVKGRFTISRDNAKNTLYLQMNSLKPEDTAVYYCAARRGFVRPYNYWGQGTQVTVSS	high polyreactivity
QVQLVESGGGLVQAGGSLRLSCAASGFIFGVYAMGWYRQAPGKERELVAAITSTGSTYYADSVKGRFTISRDNAKNTVYLQMNSLKPEDTAVYYCATYYWLGLSLYDYWGQGTQVTVSS	low polyreactivity
QVQLVESGGGLVQAGGSLRLSCAASGFIFGVYAMRWYRQAPGKERELVAAISYRTGTTYYADSVKGRFTISRDNAKNTVYLQMNSLKTEDTAVYYCNAAVRGVGELDYWGQGTQVTVSS	high polyreactivity
QVQLVESGGGLVQAGGSLRLSCAASGFIFGVYDMGWSRQAPGKERELVAAIDSVGSTYYADSVKGRFTISRDNAYNTVYLQMNSLKPEDTAVYYCAKDGSYQAYGYWGQGTQVTVSS	low polyreactivity
QVQLVESGGGLVQAGGSLRLSCAASGFIFGWNAMGWSRQAPGKEREFVAAISWSGGSTYYADSVKGRFTISRDNAKNTVYLQMNSLKPEDTAVYYCAREYHGDSRRYDYWGQGTQVTVSS	high polyreactivity
QVQLVESGGGLVQAGGSLRLSCAASGFIFGYNAMGWYRQAPGKERELVAAISSGGSTYYADSVKGRFTISRDNAKNTVYLQMKSLKPEDTAVYYCAVELGYPIQSYALWWDFEYWGQGTQVTVSS	low polyreactivity
QVQLVESGGGLVQAGGSLRLSCAASGFIFGYNAMGWYRQAPGKERELVAAISTRGGSTYYADSVKGRFTISRDNAKNTVYLQMNSLKPEDTAVYYCNKVTRVPFDSWGQGTQVTVSS	high polyreactivity
QVQLVESGGGLVQAGGSLRLSCAASGFIFGYNAMGWYRQAPGKESEFVAAISSSGASKYYADSVKGRFTISRDNAKNTVYLQMNSLKPEDTAVYYCAARYSWARYASTMGYWGQGTQVTVSS	high polyreactivity
QVQLVESGGGLVQAGGSLRLSCAASGFIFGYNDMGWSRQAPGKERELVAAINSGGSTYYADSVKGRFTISRDNAKNTVYLQMNSLKPDDTAVYYCAADYGYFEFDYWGQGTQVTVSS	low polyreactivity
QVQLVESGGGLVQAGGSLRLSCAASGFIFGYNVMGWYRQAPGKERELVAAISSRGSSTYYADSVKGRFTISRDDVKNTVYLQMNSLKPEDTAVYYCAAYSSYNSWVSRRYGHDYWGQGTQVTVSS	high polyreactivity
QVQLVESGGGLVQAGGSLRLSCAASGFIFGYYAMGWYRQAPGKERELVAAINKNGGSTYYADSVKGRFTISRDNAKNTVYLQMNSLKPEDTAVYYCAARARGYAWTYDYWGQGTQVTVSS	high polyreactivity
QVQLVESGGGLVQAGGSLRLSCAASGFIFGYYAMGWYRQAPGKERELVAAISRGGITYYADSVKGRFTISRDNAKNTVYLQMNSLKPEDTAVYYCAAPNRYSVPMYYWGQGTQVTVSS	low polyreactivity
QVQLVESGGGLVQAGGSLRLSCAASGFIFGYYAMGWYRQAPGKERELVAAITRSGGSTRYADSVKGRFTISRDNANNNVYLQMNSLKPEDSAVYYCATRDGTHGYWGQGTQVTASS	high polyreactivity
QVQLVESGGGLVQAGGSLRLSCAASGFIFGYYAMGWYRQAPGKERELVAAITRSGGSTRYADSVKGRFTLSRDNAKNTVYLQMNSLKPEDTAVYYCTAYAPRQLYGYDYWGQGTQVTVSS	high polyreactivity
QVQLVESGGGLVQAGGSLRLSCAASGFIFGYYAMGWYRQAPGKERELVAPIKYNDDSTYYADSVKARFTISRDNAKNTVYLQMNSLKPEDTAVYYCAASRFWPGNSYYYRYYYWGQGTQVTVSS	low polyreactivity
QVQLVESGGGLVQAGGSLRLSCAASGFIFHDNAMGWYRQAPGKERELVAAISRSGGRTYYADSVKGRFTISRDNAKNTVYLQMNSLKPEDTAVYYCAAVPPPGGLDYWGQGTQVTVSS	high polyreactivity

Sequence	polyreactivity (PSR sort gate)
QVQLVESGGGLVQAGGSLRLSCAASGFIFHGYTMGWYRQAPGKEMDMVARISFTGGSTYYADSVKGRFTISRDNAKNTVYLQMNSLKPEDTAVYYCAATYSSYWARYYYWGQGTQVTVSS	high polyreactivity
QVQLVESGGGLVQAGGSLRLSCAASGFIFHHYAMGWYRPAPGKERELVAAISKSGGSTYYADSVKGRFTISRDNAKNTVYLQMNSLKPEDTAVYYCAAYKRSGLKYGHWGQGTQVTVSS	high polyreactivity
QVQLVESGGGLVQAGGSLRLSCAASGFIFHKYFMGWYTQAPGKERELVAAISRSGASTYYADSVKGRFTISRDNAKNTVYLQMNSLKPEDTAVYYCAKDYQTYSGSSDFDYWGQGTQVTVSS	high polyreactivity
QVQLVESGGGLVQAGGSLRLSCAASGFIFHNYAMGWYRQAPGKESELVAVITLRGGSTYYADSVKGRCTISRDNAKNTVYLQMNSLKPEDTAVYYCATGNSKGRRTVRYGYWGQGTQVTVSS	high polyreactivity
QVQLVESGGGLVQAGGSLRLSCAASGFIFHQNAMGWYRQAPGKERELVAAITRSGTSTYYADSVKGRFTISRDNAKNTVYLQMNSLKPEDTAVYYCAACLPYGYGYDYWGQGTEVTVSS	low polyreactivity
QVQLVESGGGLVQAGGSLRLSCAASGFIFHQNAMGWYRQAPGKERELVAAITRSGTSTYYADSVKGRFTISRDYAKISVYLQMNSLKPVDTAVFYCANDPVRVGRFGYEYWGKGTQVTVSS	low polyreactivity
QVQLVESGGGLVQAGGSLRLSCAASGFIFHYNAMGWYRQAPGKERELVAAITSGDSTDYADSVKGRFTISRDNAKNTVYLQMNSLKPEDTAVYYCAAYHREGRRDDYWGQGTQVTVSS	low polyreactivity
QVQLVESGGGLVQAGGSLRLSCAASGFIFIANAMGWYRQAPGKERELVAAISDGGSTYYADSVKGRFTISRDNAKNTVYLQMNSLKPEDTGVYYCAKDVTWAGHYDYWGQGTQVTVSS	low polyreactivity
QVQLVESGGGLVQAGGSLRLSCAASGFIFIGYAMGWYRHAPGKERELVAAISWSGGSTYYADSVKGRFTISRDNAKNTVYLQMNSLKPEDTAVYYCNAVLYRFAYNYWGQGTQVTVSS	low polyreactivity
QVQLVESGGGLVQAGGSLRLSCAASGFIFIKYAMGWYRQAPGKERELVAAISSSGGSTYYADSVKGRFTISRDNAKNTVYLQMNSLKPEDTAVYYCAARGTWSRYGYWGQGTQVTVSS	high polyreactivity
QVQLVESGGGLVQAGGSLRLSCAASGFIFIRYAMGWYRQAPGKERELVAAISASGVRTYYADSVKGRFTISRDNAKNTVYLQMNSLKPEDTAVYYCAVCSAWVYGIGRYYWGQGTQVTVSS	high polyreactivity
QVQLVESGGGLVQAGGSLRLSCAASGFIFIRYAMGWYRQAPGKERELVAAISPSGGSTYYADSVKGRFTISRDNAKNTVYLQMNSLKPEDTAVYYCAREWRTYYYFWDHYYIYDYWGQGTQVTVSS	high polyreactivity
QVQLVESGGGLVQAGGSLRLSCAASGFIFISYMGCDRQAPGKERELVAAISWSGTRTYYADSVKGRFTISRDNAKNTVYLQMNSLKPEDTAVYYCAARKYYDRYFYWGQGTQVTVSS	low polyreactivity
QVQLVESGGGLVQAGGSLRLSCAASGFIFIYNAMGWYRQAPGKEREMVAAITGSDGGTFYADSVKGRFTISRDNAKNTVYLQLNSLKPEDTAVYYCNADNGSRQSRDGYESWGQGTQVTVSS	low polyreactivity
QVQLVESGGGLVQAGGSLRLSCAASGFIFKGNAMGWYRQAPGKERELVAAISYSGGSTYYADSVKGRFTISRDNAKNTVYLQMNSLKPEDTAVYYCAALRWYHYGYWGQGTQVNVSS	high polyreactivity
QVQLVESGGGLVQAGGSLRLSCAASGFIFKGYAMGWYRQAPGKERELVAAISQRGSSTYYADSVKGRFTISRDNAKNTVYLQMNSLKPEDTAVYYCNALRHSKLDYYSWGQGTQVTVSS	high polyreactivity
QVQLVESGGGLVQAGGSLRLSCAASGFIFKIYTMGWYRQAPGKERELVAAITRRGGRTFYADSVKGRFTISRDNAKNTVYLQMNSLKPEDTAVYYCNAGTKYGTYIATGALKHDYWGQGTQVTVSS	low polyreactivity
QVQLVESGGGLVQAGGSLRLSCAASGFIFKRYAMGWYRQAPGKEREFVAAISWGGGNTYYADSVKGRFTISRDNAKNTVYLQMNSLKPEDTAVYYCAKVTSALKYGYWGQGTQVTVSS	high polyreactivity
QVQLVESGGGLVQAGGSLRLSCAASGFIFKRYAMGWYRQAPGKERELVAAITLSGGDTYYADSVKGRFTISRDNAKNTVYLQMNSLKPEDTAVYYCAARYMSTRTLYYYWGQGTQVTVSS	high polyreactivity
QVQLVESGGGLVQAGGSLRLSCAASGFIFKRYSMGWYRQAPGKERELVAAITSGGSTHYADSVKGRFTISRDNAKNTVYLQMNSLKPEDTAVYYCATRRYKWGVRYDYWGQGTQVTVSS	high polyreactivity
QVQLVESGGGLVQAGGSLRLSCAASGFIFKSYAMGWYRQAPGKERELVAGITRRGGSTYYADSVKGRFTISRDNSKNSVYFQMISLKPEDTAVYYCNAGRKTADYDYWGQGTQVTVSS	high polyreactivity
